In patent CN106902750A:

Assays:
[1] = target: Myc-GST融合蛋白(Myc标签与谷胱甘肽融合的蛋白); test: indirect ELISA, Myc-GST coated at 5 μg/mL, HRP anti-His secondary antibody; heat test at 80℃ for 30 min
[2] = target: Myc-GST融合蛋白(Myc标签与谷胱甘肽融合的蛋白); test: indirect ELISA, Myc-GST coated at 5 μg/mL, HRP anti-His secondary antibody; heat test at 90℃ for 30 min
[3] = target: Myc-GST融合蛋白(Myc标签与谷胱甘肽融合的蛋白); test: indirect ELISA, Myc-GST coated at 5 μg/mL, HRP anti-His secondary antibody; heat test at 70℃ for 30 min

B1: 抗c-Myc标签单域重链抗体 (VHH, not shown: small tags and cut ends)
VHH: QLQLVESGGGLVQPGESLTLTCVASGGTLENWDIAWFRQAPGKEREGVAYFSSDGIRNYGDSMRGRFKISRDNAKNTAWLQMNRLSVEDTSTYYCAAKERVGRAWRNDGLYRYWGQGTQVTVSS
- OD450 [1]: 1.4 OD450
- OD450 [2]: 1.2 OD450
- OD450 [3]: 1.5 OD450
